From patent US20030129193A1 (priority 2001, published 2003) come the findings set out here.

The target in data set [1] is recombinant, depyrogenated truncated Tissue Factor (amino acids 1-219), secreted into the periplasm of E. coli from vector pswc7 (human) (UniProt P13726). The experiment in a line: cell-based or functional assay.
Data set [2] relates to Mouse bEnd.3 endothelial cells. Description: PS induction by H2O2. The class given is cell-based. The procedure:
Mouse bEnd.3 endothelial cells were seeded at an initial density of 50,000 cells/well. Twenty-fours later cells were incubated with increasing concentrations of H2O2 (from 10 μM to 500 μM) for 1 hour at 37° C. or left untreated. At the end of the incubation, cells were washed 3 times with PBS containing 0.2% gelatin and fixed with 0.25% glutaraldehyde. Identical wells were either stained with anti-PS IgM or trypsinized and evaluated for viability by the Trypan Blue exclusion test. For the anti-PS staining, after blocking with 2% gelatin for 10 min., cells were incubated with 2 μg/ml of anti-PS antibody, followed by detection with anti-mouse IgM-HRP conjugate.

Data set [3] relates to citrated mouse or human plasma. Description: In vitro coagulation assay on A20 cells. The class given is cell-based. Conditions: for concentration at which plasma coagulated in 50 seconds: localized on A20 cells via B21-2/10H10; for coagulation times versus tTF219 and Factor VIIa at the same concentrations: Factor VIIa at 1 nM or greater.
Data set [4] deals with HT29 human colorectal carcinoma. The experiment in a line: Anti-tumor effects and tumor necrosis, HT29. The class given is in vivo, BALB/c nu/nu mice. Conditions: small HT29 tumors, single agents, 24 hours.
Data set [5] has as its system factor X. The experiment in a line: Factor Xa production assay on A20 cells. The class given is cell-based. As to conditions: Factors II, VII and IX present.

Take Factor VIIa (Sigma) (enzyme): in data set [1], the Factor Xa generation due to Factor VIIa production on bEnd3 cells; stimulation: 0.5 µg/ml LPS; incubation: tTF-VIIa was 6.25 nkat S2222, the Factor Xa generation due to Factor VIIa production on bEnd3 cells; stimulation: 0.5 µg/ml LPS; tTF-VIIa minus sTF worked out at 3.25 nkat S2222, the Factor Xa generation due to Factor VIIa production on bEnd3 cells; stimulation: TNFα; incubation: tTF-VIIa was determined as 2.93 nkat S2222 and the Factor Xa generation due to Factor VIIa production on bEnd3 cells; stimulation: TNFα; tTF-VIIa minus sTF was found to be 1.02 nkat S2222. For the same molecule, in data set [1], the Factor Xa generation due to Factor VIIa production on bEnd3 cells; stimulation: medium; incubation: tTF-VIIa was 0.95 nkat S2222, the Factor Xa generation due to Factor VIIa production on bEnd3 cells; stimulation: medium; tTF-VIIa minus sTF stood at 0.25 nkat S2222, the Factor Xa generation on bEnd3 cells; stimulation: 0.5 µg/ml LPS; incubation: tTF-VIIa was determined as 3.35 nkat S2222 and the Factor Xa generation on bEnd3 cells; stimulation: 0.5 µg/ml LPS; tTF-VIIa minus sTF (background subtracted) came to 1.35 nkat S2222. In data set [1], the Factor Xa generation on bEnd3 cells; stimulation: 10 µg/ml LPS; incubation: tTF-VIIa was found to be 4.46 nkat S2222, the Factor Xa generation on bEnd3 cells; stimulation: 10 µg/ml LPS; tTF-VIIa minus sTF (background subtracted) is 1.55 nkat S2222, the Factor Xa generation on bEnd3 cells; stimulation: TNFα; incubation: tTF-VIIa was determined as 1.51 nkat S2222 and the Factor Xa generation on bEnd3 cells; stimulation: TNFα; tTF-VIIa minus sTF (background subtracted) worked out at 0.84 nkat S2222. In addition, in data set [1], the Factor Xa generation on bEnd3 cells; stimulation: medium; incubation: tTF-VIIa was 0.56 nkat S2222 and the Factor Xa generation on bEnd3 cells; stimulation: medium; tTF-VIIa minus sTF (background subtracted) was found to be 0.16 nkat S2222.
Usually cell viability stands for a read-out of living cells in per cent, often relative to untreated cells. Lower therefore signals a greater loss of cells. `OO` [H2O2]: the “cells with PS at the cell surface” value in data set [2] (concentrations as low as 20 μM) is “about 50%”. Also, the “cells with PS translocation” value in data set [2] (concentrations higher than 100 μM, 1 hour) is approximately 90%. The same molecule showed a cell viability in data set [2] (low levels of H2O2 (lower than 100 μM)) of 95%.

B1: H6-tTF219-cys-C′: (His)6 tTF219 with a Cys after amino acid 219 (protein)
chain: HHHHHHAMALVPRGSGTTNTVAAYNLTWKSTNFKTILEWEPKPVNQVYTVQISTKSGDWKSKCFYTTDTECDLTDEIVKVKQTYLARVFSYPAGNVESTGSAGEPLYENSPEFTPYLETNLGQPTIQSFEQVGTKVNVTVEDRTLVRRNNTFLSLRDVFGKDLIYTLYYWKSSSSGKKTAKTNTNEFLIDVDKGENYCFSVQAVIPSRTVNRKSTDSPVECMGQEKGEFREC
For the molecule B1, the “concentration at which plasma coagulated in 50 seconds” value (from here on “concentration … in 50 seconds”) in data set [3] was 3000 pM.

B2: tTF221-cys-C′: tTF with Ile-Phe-Cys after amino acid 219, without (His)6 tag (protein)
chain: GSGTTNTVAAYNLTWKSTNFKTILEWEPKPVNQVYTVQISTKSGDWKSKCFYTTDTECDLTDEIVKDVKQTYLARVFSYPAGNVESTGSAGEPLYENSPEFTPYLETNLGQPTIQSFEQVGTKVNVTVEDERTLVRRNNTFLSLRDVFGKDLIYTLYYWKSSSSGKKTAKTNTNEFLIDVDKGENYCFSVQAVIPSRTVNRKSTDSPVECMGQEKGEFREIFC
B2: the “concentration … in 50 seconds” value in data set [3] is 500 pM.

B3: Factor VIIa: recombinant human Factor VIIa (protein)
light: ANAFLEELRPGSLERECKEEQCSFEEAREIFKDAERTKLFWISYSDGDQCASSPCQNGGSCKDQLQSYICFCLPAFEGRNCETHKDDQLICVNENGGCEQYCSDHTGTKRSCRCHEGYSLLADGVSCTPTVEYPCGKIPILEKRNASKPQGR
heavy: IVGGKVCPKGECPWQVLLLVNGAQLCGGTLINTIWVVSAAHCFDKIKNWRNLIAVLGEHDLSEHDGDEQSRRVAQVIIPSTYVPGTTNHDIALLRLHQPVVLTDHVVPLCLPERTFSERTLAFVRFSLVSGWGQLLDRGATALELMVLNVPRLMTQDCLQQSRKVGDSPNITEYMFCAGYSDGSKDSCKGDSGGPHATHYRGTWYLTGIVSWGQGCATVGHFGVYTRVSQYIEWLQKLMRSEPRPGVLLRAPFP
On to B3, for which the “necrosis in tumor sections” value in data set [4] is recorded as “some necrosis”.

B4: Fab′-H6—N′-cys-tTF219: Fab′-SS-tTF conjugate (conjugate)
chain: HHHHHHAMALVPRGSCGTTNTVAAYNLTWKSTNFKTILEWEPKPVNQVYTVQISTKSGDWKSKCFYTTDTECDLTDEIVKDVKQTYLARVFSYPAGNVESTGSAGEPLYENSPEFTPYLETNLGQPTIQSFEQVGTKVNVTVEDERTLVRRNNTFLSLRDVFGKDLIYTLYYWKSSSSGKKTAKTNTNEFLIDVDKGENYCFSVQAVIPSRTVNRKSTDSPVECMGQEKGEFRE
modifications: left off: another chain or arm of the molecule; large carriers
For B4, the “Xa formation relative to H6—N′-cys-tTF219” value in data set [5] is listed as “as active as H6—N′-cys-tTF219 itself”.

B5: tTF219 (G164A): tTF219 with amino acid 164 (Gly) replaced by Ala (protein)
chain: GSGTTNTVAAYNLTWKSTNFKTILEWEPKPVNQVYTVQISTKSGDWKSKCFYTTDTECDLTDEIVKDVKQTYLARVFSYPAGNVESTGSAGEPLYENSPEFTPYLETNLGQPTIQSFEQVGTKVNVTVEDERTLVRRNNTFLSLRDVFGKDLIYTLYYWKSSSSAKKTAKTNTNEFLIDVDKGENYCFSVQAVIPSRTVNRKSTDSPVECMGQEKGEFRE
As for B5, in data set [3], the “coagulation times versus tTF219 and Factor VIIa at the same concentrations” value is given as “only marginally slower coagulation times”. Further, the “necrosis in tumor sections” value in data set [4] is “some necrosis”.

B6: tTF219 (W158R) (protein)
chain: GSGTTNTVAAYNLTWKSTNFKTILEWEPKPVNQVYTVQISTKSGDWKSKCFYTTDTECDLTDEIVKDVKQTYLARVFSYPAGNVESTGSAGEPLYENSPEFTPYLETNLGQPTIQSFEQVGTKVNVTVEDERTLVRRNNTFLSLRDVFGKDLIYTLYYRKSSSSGKKTAKTNTNEFLIDVDKGENYCFSVQAVIPSRTVNRKSTDSPVECMGQEKGEFRE
B6: the “coagulation times versus tTF219 and Factor VIIa at the same concentrations” value in data set [3] is given as “only marginally slower coagulation times”.

B7: H6-tTF220-cys-C′: tTF219 mutated to encode Ile-Cys after amino acid 219, (His)6 tag (protein)
chain: HHHHHHAMALVPRGSGTTNTVAAYNLTWKSTNFKTILEWEPKPVNQVYTVQISTKSGDWKSKCFYTTDTECDLTDEIVKDVKQTYLARVFSYPAGNVESTGSAGEPLYENSPEFTPYLETNLGQPTIQSFEQVGTKVNVTVEDERTLVRRNNTFLSLRDVFGKDLIYTLYYWKSSSSGKKTAKTNTNEFLIDVDKGENYCFSVQAVIPSRTVNRKSTDSPVECMGQEKGEFRE
Take B7: in data set [3], the “concentration … in 50 seconds” value was found to be 500 pM.

B8: H6-tTF221-cys-C′ dimer: chemically conjugated disulfide dimer of H6-tTF221-cys-C′ (protein)
chain: HHHHHHAMALVPRGSGTTNTVAAYNLTWKSTNFKTILEWEPKPVNQVYTVQISTKSGDWKSKCFYTTDTECDLTDEIVKDVKQTYLARVFSYPAGNVESTGSAGEPLYENSPEFTPYLETNLGQPTIQSFEQVGTKVNVTVEDERTLVRRNNTFLSLRDVFGKDLIYTLYYWKSSSSGKKTAKTNTNEFLIDVDKGENYCFSVQAVIPSRTVNRKSTDSPVECMGQEKGEFRE
For B8, in data set [3] (less active), the “reduction of coagulation-inducing activity relative to monomer / tTF219” value amounted to 4 fold.

B9: tTF220-cys-C′: tTF with Ile-Cys after amino acid 219, without (His)6 tag (protein)
chain: GSGTTNTVAAYNLTWKSTNFKTILEWEPKPVNQVYTVQISTKSGDWKSKCFYTTDTECDLTDEIVKDVKQTYLARVFSYPAGNVESTGSAGEPLYENSPEFTPYLETNLGQPTIQSFEQVGTKVNVTVEDERTLVRRNNTFLSLRDVFGKDLIYTLYYWKSSSSGKKTAKTNTNEFLIDVDKGENYCFSVQAVIPSRTVNRKSTDSPVECMGQEKGEFREIC
With B9, the “concentration … in 50 seconds” value in data set [3] was determined as 500 pM.
